Data as given in patent publication US20210261605A1.
Substitutions are numbered along the chain they refer to. Blank lines part the entries; values can stand above or below the binder they belong to.

Target: IgG1 (product of Sigma-Aldrich)
Assay: SPR (Biacore T100), Fc-binding protein immobilized on CM5 chip, IgG1 in flow

B1: FcR35d-containing Fc-binding protein (SEQ ID NO: 7) (receptor)
chain: KIEEAMGMRTGDMPKAEVILEPPWNRVLEQDSVTLKCRGAHSPDDDSTQWFHNERLIPSQASSFIIDSASVDDSGEYRCQTSLSTLSDPVQLEVHIGWLLLQAPRWEFVEGEPIHLRCHSWRNTALHKVMFLQNGKVRKYFHHNSDFVIPKATLEDSGSYSCRGLVGRKKVSSGAVDITVTQGGHHHHHH
- Kd: 0.039 µM
- koff: 0.031 s⁻¹
- kon: 810000 M⁻¹ s⁻¹

B4: FcR36a-containing Fc-binding protein (SEQ ID NO: 11) (receptor)
chain: B1 chain with V166A
- Kd: 0.095 µM
- koff: 0.13 s⁻¹
- kon: 1.4e+06 M⁻¹ s⁻¹

B5: FcR9_I (SEQ ID NO: 24), Fc-binding protein containing the amino acid substitution Val192Ile (receptor)
chain: KIEEAMGMRTEDLPKAEVILEPQWNRVLEKDSVTLKCRGAYSPEDNSTQWFHNESLISSQASSYLIDAATVDDSGEYRCQTSLSTLSDPVQLEVHIGWLLLQAPRWEFKEGDPIHLRCHSWKNTALHKVTYLQNGKGRKYFHHNSDFYIPKATLKDSGSYSCRGLIGSKNVSSETVNITITQGGHHHHHH
- Kd: 0.06 µM
- koff: 0.012 s⁻¹
- kon: 200000 M⁻¹ s⁻¹

B6: FcR9_A (SEQ ID NO: 26), Fc-binding protein containing the amino acid substitution Val192Ala (receptor)
chain: B5 chain with I166A
- Kd: 0.036 µM
- koff: 0.0035 s⁻¹
- kon: 100000 M⁻¹ s⁻¹

B8: Fc-binding protein FcR9 (SEQ ID NO: 20) (receptor)
chain: B5 chain with I166V
- Kd: 0.077 µM
- koff: 0.031 s⁻¹
- kon: 410000 M⁻¹ s⁻¹

The remaining binders from weak to strong by Kd, led by results:

- Kd: 3.3 µM
- koff: 0.3 s⁻¹
- kon: 90000 M⁻¹ s⁻¹
B7: FcR9_F, Fc-binding protein having phenylalanine substituting for valine at position 192 of FcR9 (SEQ ID NO: 20) (receptor)
chain: B5 chain with I166F

- Kd: 0.043 µM
- koff: 0.038 s⁻¹
- kon: 900000 M⁻¹ s⁻¹
B2: FcR36i-containing Fc-binding protein (SEQ ID NO: 9) (receptor)
chain: B1 chain with V166I

- Kd: 0.04 µM
- koff: 0.022 s⁻¹
- kon: 540000 M⁻¹ s⁻¹
B3: FcR35c-containing Fc-binding protein (SEQ ID NO: 5) (receptor)
chain: B1 chain with R55S, D72E, D88E, Q91L, K170N, G174E, D177E, Q182P
